Reference: US20150368327A1 (YOKOHAMA CITY UNIVERSITY, published 2015)

T1: mouse Sema 3A protein (mouse, UniProt O08665 21-772, limits assumed)
T1 construct: Produced from mouse Sema 3A protein expressing cells; also called Mouse Sema 3A antigen
T1 sequence (looked up): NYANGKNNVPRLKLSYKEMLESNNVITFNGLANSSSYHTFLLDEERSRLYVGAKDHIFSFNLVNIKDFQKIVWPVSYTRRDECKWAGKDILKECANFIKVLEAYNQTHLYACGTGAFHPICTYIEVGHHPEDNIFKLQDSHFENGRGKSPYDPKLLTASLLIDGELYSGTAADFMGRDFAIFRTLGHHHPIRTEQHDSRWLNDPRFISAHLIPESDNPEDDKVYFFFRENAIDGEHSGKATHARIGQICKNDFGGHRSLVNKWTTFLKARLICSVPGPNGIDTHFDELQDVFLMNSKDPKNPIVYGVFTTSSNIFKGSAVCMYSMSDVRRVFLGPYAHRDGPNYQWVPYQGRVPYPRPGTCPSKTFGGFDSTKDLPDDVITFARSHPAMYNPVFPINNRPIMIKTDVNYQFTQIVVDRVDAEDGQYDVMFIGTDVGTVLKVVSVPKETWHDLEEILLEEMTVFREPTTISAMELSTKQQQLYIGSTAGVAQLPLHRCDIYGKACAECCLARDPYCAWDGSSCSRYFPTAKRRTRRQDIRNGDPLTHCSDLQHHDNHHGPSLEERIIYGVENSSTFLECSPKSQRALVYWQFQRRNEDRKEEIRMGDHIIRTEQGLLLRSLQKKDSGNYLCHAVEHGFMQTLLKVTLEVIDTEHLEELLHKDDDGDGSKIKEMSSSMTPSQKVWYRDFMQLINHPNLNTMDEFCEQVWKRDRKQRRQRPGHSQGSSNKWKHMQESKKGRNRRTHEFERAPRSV


Target: T1, mouse Sema 3A protein
Test: direct solid phase ELISA screening with mouse Sema 3A as antigen
Description: A direct solid phase ELISA was carried out according to the following process. In Day 6 after the step 2-2), 2.5 μg/mL of mouse Sema 3A protein was dispensed into a 384 well Maxisorp (Nunc) by 20 μL each and left to stand overnight. Ovalbumin (OA) and rabbit IgG (rIgG) were immobilized in the plate as negative controls in similar manner in order to examine the specificity of antibodies. On the next day, the content in the plate was removed and 45 μL of blocking solution (PBS buffer containing 1% BSA) was added thereto, followed by incubation at room temperature for one hour. The plate was washed five times with 120μL/well of ELISA washing buffer (PBS containing 0.05 wt % Tween 20), to which were added culture supernatants derived from the colony obtained by selection in the step 2-2) by 25 μL/well and then incubated at room temperature for one hour. The plate was washed five times with 120 μL/well of ELISA washing solution and then to which was added 25 μL of diluent in which a secondary antibody was diluted 2000 times with a blocking buffer and incubated at room temperature for 45 minutes. Anti-chicken IgM-HRP (Bethyl Laboratories, Inc.) was used as a secondary antibody. […] Subsequently, the reaction was quenched with 25 μL of 1N sulfuric acid to determine the absorbance at 450 nm.

Binder	binding result
Anti-Sema 3A avian antibody (clone No. 240-40 strain-derived) (antibody, V domains shown, Avian (chicken) IgM) VH: AVTLDESGGGLQTPGGALSLVCKASGFTFSSYDMNWVRQAPGKGLEWVAGIYSGSSTYYGAAVKGRATISRDNGQSTLRLQLNNLRAEDTGIYYCAKSAIPVNSAGSIDAWGHGTEVIVSS VL: ALTQPASVSANPGETVKITCSGGGSYGGSYYYSWHQQKSPGSALVTVIYYNNKRPSDIPSRFSGSLSGSTNTLTITGVRADDEAVYFCGSADTSGTAFGAGTTLTVL	binds
Anti-Sema 3A avian antibody (clone No. 255-72 strain-derived) (antibody, V domains shown, Avian (chicken) IgM) VH: AVTLDESGGGLQTPGGALSLVCKASGFTFSSYEMQWVRQAPGKGLEWVAGIYSGSTWYGAAVKGRATISRDNGQSTVRLQLNNLRAEDTGTYYCAKSGIGFNSAGSIDAWGHGTEVIVSS VL: ALTQPASVSANPGETVKITCSGGGSYGGSYYYSWHQQKSPGSALVTVIYYNNKRPSDIPSRFSGSLSGSTNTLTITGVRADDEAVYFCGSADNSGSAFGAGTTLTVL	binds
